Laboratory results published in article PMC5414179, “Functional characterization of a multi-cancer risk locus on chr5p15.33 reveals regulation of TERT by ZNF148”.

Biological target: T1, ZNF148 (ZBP-89), recombinant (Homo sapiens, UniProt Q9UQR1 1-794)
T1 sequence: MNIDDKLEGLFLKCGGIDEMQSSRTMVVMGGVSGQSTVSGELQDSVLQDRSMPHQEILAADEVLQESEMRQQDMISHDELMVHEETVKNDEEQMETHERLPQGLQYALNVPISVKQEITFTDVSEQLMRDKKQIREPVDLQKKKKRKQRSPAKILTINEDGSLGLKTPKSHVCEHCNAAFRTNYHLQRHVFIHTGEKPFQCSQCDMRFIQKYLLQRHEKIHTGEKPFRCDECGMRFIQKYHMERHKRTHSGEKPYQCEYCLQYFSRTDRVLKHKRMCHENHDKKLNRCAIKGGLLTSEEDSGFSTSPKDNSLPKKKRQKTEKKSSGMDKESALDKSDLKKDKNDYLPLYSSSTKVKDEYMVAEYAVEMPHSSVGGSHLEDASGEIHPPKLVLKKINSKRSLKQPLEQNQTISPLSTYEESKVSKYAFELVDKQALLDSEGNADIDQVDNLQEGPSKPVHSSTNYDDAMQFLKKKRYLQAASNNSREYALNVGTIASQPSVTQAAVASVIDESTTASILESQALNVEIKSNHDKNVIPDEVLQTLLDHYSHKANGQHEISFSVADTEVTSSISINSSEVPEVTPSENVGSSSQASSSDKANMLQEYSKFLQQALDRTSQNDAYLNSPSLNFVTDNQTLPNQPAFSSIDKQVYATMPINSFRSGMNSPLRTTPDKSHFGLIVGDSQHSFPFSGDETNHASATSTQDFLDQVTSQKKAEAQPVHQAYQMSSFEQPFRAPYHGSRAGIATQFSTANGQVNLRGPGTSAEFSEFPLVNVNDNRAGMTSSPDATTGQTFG
Experiment: EMSA; positive control; EMSA: 10 ug nuclear extract or 90-630 ng recombinant ZNF148 with 3'-biotin probe, 20 min on ice, 4-20% TBE gel; antibody preincubation 20 min at room temperature; buffer, salt and pH not stated
Settings: protein: commercial; label: 3' biotin; blunt

B1: ZNF148 binding motif, CDKN1A/p21 promoter (dsDNA)
DNA 1: CGCAGGCGAGGGACTGGGGGAGGAGGGAAGTGCCC
DNA 2: GGGCACTTCCCTCCTCCCCCAGTCCCTCGCCTGCG
B1: binds.
